In patent US20020160955A1 (published 2002):
Where a chain is given by its changes, count along the chain named.

Key:
Assay in all cases: competitive phage ELISA
[1] = biological target: T1, IGF-I G32A (G1S-A70V background) displayed on phage (human; bacteriophage M13)
T1 construct: monovalent M13 phage display; not shown: M13 gene III fragment (residues 249-406, display partner) and the junction to it
T1 chain: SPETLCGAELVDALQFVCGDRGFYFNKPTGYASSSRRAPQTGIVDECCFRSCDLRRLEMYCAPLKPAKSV
Description: (§1) Phage particles were harvested and resuspended in PBS buffer as described in Lowman, H. B., “Phage Display of Peptide Libraries on Protein Scaffolds,” in Cabilly, S. (ed.), Combinatorial Peptide Library Protocols (Humana Press Inc.: Totowa, N.J., 1998), pp. 249-264. Then phage concentrations were normalized to yield a maximal ELISA signal of 0.2-0.4 for each mutant (Lowman, in Cabilly, S. (ed.), supra). Threefold serial dilutions of soluble competitor were prepared on non-absorbent microtiter plates (Nunc, F, 96 wells) with binding buffer (0.5% TWEEN™ 20/PBS) containing phage at the previously-determined concentrations. […] After blocking, the plates containing immobilized target were washed with 0.05% TWEEN™/PBS buffer and subsequently incubated with 80 μl/well of the premixed phage-competitor solutions for 1 hour at room temperature. After washing, bound phage was detected with 80 μl/well of a solution containing a primary rabbit anti-phage polyclonal antibody and a secondary goat anti-rabbit monoclonal antibody-horseradish peroxidase conjugate in 0.5% TWEEN 20™/PBS. o-Phenylenediamine (Sigma) and tetramethylbenzidine (Kirkegaard and Perry) were used as chromogenic substrates, resulting in product detection at 492 and 450 nm, respectively. IC₅₀ values were determined by fitting the binding data to a generic saturation curve (Lowman, in Cabilly, S. (ed.), supra). […] Numbers in Table I represent mean +standard deviation of individually assessed IC₅₀ values.
(§2) At least two different clones of every mutant were tested.

[2] = biological target: T2, IGF-I Q15A (G1S-A70V background) displayed on phage (human; bacteriophage M13)
T2 construct: monovalent M13 phage display
T2 chain: T1 chain with Q15A, A32G
Description: as §1, §2

[3] = biological target: T3, IGF-I G1S-A70V displayed on phage (human; bacteriophage M13)
T3 construct: monovalent M13 phage display; template of the alanine scan; also called G1S-A70V IGF-I; wild-type-like IGF-I variant; not shown: M13 gene III fragment (residues 249-406, display partner) and the junction to it
Description: as §1, §2

[4] = biological target: T4, IGF-I R37A (G1S-A70V background) displayed on phage (human; bacteriophage M13)
T4 construct: monovalent M13 phage display
T4 chain: T1 chain with A32G, R37A
Description: as §1, §2

[5] = biological target: T5, IGF-I K27A (G1S-A70V background) displayed on phage (human; bacteriophage M13, not fully specified; Displayed monovalently on M13 phage as a C-terminal fusion to the gene III fragment, which is left out of the letters.)
T5 construct: monovalent M13 phage display; not shown: Display carrier: M13 gene III fragment (residues 249-406) and its junction
T5 chain: T1 chain with K27A, A32G
Description: as §1, §2

[6] = biological target: T6, IGF-I E46A (G1S-A70V background) displayed on phage (human; bacteriophage M13)
T6 construct: monovalent M13 phage display
T6 chain: T1 chain with A32G, E46A
Description: as §1, §2

[7] = biological target: T7, IGF-I S33A (G1S-A70V background) displayed on phage (human; bacteriophage M13)
T7 construct: monovalent M13 phage display; not shown: M13 gene III fragment (residues 249-406, display partner) and the junction to it
T7 chain: T1 chain with A32G, S33A
Description: as §1, §2

[8] = biological target: T8, IGF-I G22A (G1S-A70V background) displayed on phage (human; bacteriophage M13, not fully specified; Displayed monovalently on M13 phage as a C-terminal fusion to the gene III fragment, which is left out of the letters.)
T8 construct: monovalent M13 phage display; not shown: Display carrier: M13 gene III fragment (residues 249-406) and its junction
T8 chain: T1 chain with G22A, A32G
Description: as §1, §2

[9] = biological target: T9, IGF-I Q40A (G1S-A70V background) displayed on phage (human; bacteriophage M13)
T9 construct: monovalent M13 phage display
T9 chain: T1 chain with A32G, Q40A
Description: as §1, §2

[10] = biological target: T10, IGF-I E3A (G1S-A70V background) displayed on phage (human; bacteriophage M13, UniProt P69168 267-424)
T10 chain: T1 chain with E3A, A32G
Description: as §1, §2

[11] = biological target: T11, IGF-I G30A (G1S-A70V background) displayed on phage (human; bacteriophage M13)
T11 construct: monovalent M13 phage display; not shown: M13 gene III fragment (residues 249-406, display partner) and the junction to it
T11 chain: T1 chain with G30A, A32G
Description: as §1, §2

[12] = biological target: T12, IGF-I L57A (G1S-A70V background) displayed on phage (human; bacteriophage M13)
T12 construct: monovalent M13 phage display; not shown: M13 gene III protein fragment (residues 249-406), the phage display carrier, and its junction to IGF-I
T12 chain: T1 chain with A32G, L57A
Description: as §1, §2

[13] = biological target: T13, IGF-I R56A (G1S-A70V background) displayed on phage (human; bacteriophage M13)
T13 construct: monovalent M13 phage display
T13 chain: T1 chain with A32G, R56A
Description: as §1, §2

[14] = biological target: T14, IGF-I P66A (G1S-A70V background) displayed on phage (human; bacteriophage M13)
T14 construct: monovalent M13 phage display; not shown: M13 gene III protein fragment (residues 249-406), the phage display carrier, and its junction to IGF-I
Description: as §1, §2

[15] = biological target: T15, IGF-I S69A (G1S-A70V background) displayed on phage (human; bacteriophage M13, UniProt P69168 267-424)
T15 chain: T1 chain with A32G, S69A
Description: as §1, §2

B1: human IGFBP-1 (other, UniProt P08833 26-259, looked up)
chain: APWQCAPCSAEKLALCPPVSASCSEVTRSAGCGCCPMCALPLGAACGVATARCARGLSCRALPGEQQPLHALTRGQGACVQESDASAPHAAEAGSPESPESTEITEEELLDNFHLMAPSEEDHSILWDAISTYDGSKALHVTNIKKWKEPCRIELYRVVESLAKAQETSGEEISKFYLPNCNKNGFYHSRQCETSMDGEAGLCWCVYPWNGKRIPGSPEIRGDPNCQIYFNVQN
notes: secreted recombinant protein purified from conditioned medium
With B1 the IC50 [1] was 10.9 nM, the IC50 [2] was 13.9 nM and the IC50 [3] was 8.2 nM. For the same binder, the IC50 [4] was 12.3 nM, the IC50 [5] was 12.8 nM and the IC50 [6] was 7.9 nM. It also gave an IC50 [7] of 9.1 nM, an IC50 [8] of 15.9 nM and an IC50 [9] of 10.2 nM. For the same binder, the IC50 [10] was 278 nM, the IC50 [11] was 7.1 nM and the IC50 [12] was 21.8 nM. It also gave an IC50 [13] of 13.1 nM, an IC50 [14] of 9.4 nM and an IC50 [15] of 12.8 nM.
